Test results as given in the RNAGym collection of RNA variant scans (doi:10.7554/elife.90254).

B1: LINE1-mini (parent)
chain: GGCAGAGCUCAACACAGCGUGGCAAAGUGGCUGUGGCUAGACUGCC

Variants of: B1
Assay: self-cleavage, relative activity (ratio to wild type); higher = more cleavage; in vitro, sequencing; the parent is a self-cleaving ribozyme

Variant	self-cleavage
G29C C31A	1.34
G29C C31G	0.34
G29C C31U	0.93
G29C C46G	0.52
G29C C46U	0.6
G29C C46A	0.68
G29C A41C	0.04
G29C A41U	0.32
G29C A41G	0.21
U28G A41C	0.04
U28G A41G	0.27
U28G A41U	0.52
G29C G40A	0.07
G29C G40C	0.05
G29C G40U	0.07
G29A A41U	0.74
G29A A41C	0.05
G29A A41G	0.32
G29A G40U	0.12
G29A G40C	0.08
G29A G40A	0.11
U28C U38A	0.1
U28C U38G	0.01
G29A U34C	0.08

Variant	self-cleavage
G29A U34A	0.19
G29A U34G	0.38
U28G C37U	0.03
U28G C37A	0.03
U28G C37G	0.03
U28C G44C	0.27
U28C G44A	0.67
U28C G44U	0.34
U28G G35A	0.14
U28G G35C	0.07
U28G G35U	0.09
G29C G44U	0.37
G29C G44A	0.15
G29C G44C	0.29
G29C G33U	0.36
G29C G33A	0.12
G29C G33C	0.1
U28C G40C	0.2
U28C G40U	0.17
U28C G40A	0.09
U28C U43C	0.12
U28C U43A	0.08
G29A U43C	0.08
G29A U43A	0.16

Variant	self-cleavage
G29A U43G	0.04
U28G G29U	0.61
U28G G29A	0.34
U28G G29C	0.53
G29A G30C	1.52
G29A G30U	1.41
G29A G30A	2.29
U28G G33U	0.06
U28G G33C	0.05
U28G G33A	0.11
U28G G36A	0.12
U28G G36C	0.05
U28G G36U	0.12
G29C C42U	0.22
G29C C42G	0.02
G29C C42A	0.1
U28G C46U	0.36
U28G C46G	0.99
U28G C46A	1.1
U28C U32A	0.09
U28C U32C	0.27
U28C U32G	0.3
G29A U38C	0.44
G29A U38G	0.01

Variant	self-cleavage
G29A U38A	0.28
U28G C42A	0.18
U28G C42U	0.31
U28G C42G	0.03
U28G U38C	1.1
U28G U38A	0.19
U28G U38G	0.02
U28G A39C	0.05
U28G A39U	0.56
U28G A39G	0.07
U28G G30C	0.77
U28G G30U	0.77
U28G G30A	0.9
G29C G35C	0.15
G29C G35A	0.13
G29C G35U	0.06
G29C G36U	0.04
G29C G36C	0.05
G29C G36A	0.02
G29C	0.49
G29A	0.88
U28C G35U	0.09
U28C G35C	0.13
G29A G44C	0.34

Variant	self-cleavage
G29A G44A	0.36
G29A G44U	0.26
U28C G36A	0.1
U28C G36U	0.11
U28C G36C	0.28
U28G U43G	0
U28G U43A	0.06
U28G U43C	0.08
U28G G40C	0.07
U28G G40A	0.12
U28G G40U	0.09
G29A G35C	0.09
G29A G35U	0.15
G29A G35A	0.23
U28G U34G	0.23
U28G U34A	0.26
U28G U34C	0.11
G29A U32G	0.46
G29A U32C	0.18
G29A U32A	0.4
U28C U34G	0.21
U28C U34A	0.22
G29C C45U	0.67
G29C C45G	0.19

Variant	self-cleavage
G29C C45A	0.45
G29A A39U	0.93
G29A A39C	0.21
G29A A39G	0.07
G29C C37U	0.02
G29C C37G	0.02
G29C C37A	0.02
G29C G30C	0.23
G29C G30A	1.73
G29C G30U	0.67
G29A C46A	0.89
G29A C46G	0.74
G29A C46U	0.82
G29A G33A	0.12
G29A G33C	0.06
G29A G33U	0.12
G29A C45U	1.67
G29A C45A	1.03
G29A C45G	0.2
U28G C45G	0.27
U28G C45U	0.92
U28G C45A	0.44
G29C A39C	0.06
G29C A39U	0.15

Variant	self-cleavage
G29C A39G	0.03
G29A G36U	0.09
G29A G36A	0.11
G29A G36C	0.09
U28G U32C	0.27
U28G U32G	0.24
U28G U32A	0.05
G29A C42U	0.42
G29A C42G	0.04
G29A C42A	0.16
U28G G44U	0.23
U28G G44A	0.28
U28G G44C	0.54
U28G	0.64
G29A C31A	0.43
G29A C31G	0.39
G29A C31U	0.95
U28G C31A	0.22
U28G C31G	0.28
U28G C31U	0.47
G29A C37U	0.05
G29A C37G	0.02
G29A C37A	0.1
